The supplement of paper PMC10567573

B1: SMTNL2 (parent)
chain: QKNFELAFTMAENLANCERLIEVE

Variants of: B1
Experiment: protein stability index of a GFP-peptide fusion (GPS, HEK-293T) (PSI 1-6); higher = more stable
Conditions: c terminus: a fixed tail appended
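Further: lentivirally expressed fusions sorted by FACS into six bins by GFP to DsRed ratio, PSI derived from sequencing read proportions per bin multiplied by bin number.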

Protein stability index, by site and new letter:
M10: I 1.57; Q 4.38; K 3.9; A 3.87; N 4.24; W 1.41; H 3.91; L 1.66; Y 3.45; F 3.08; G 4.33; E 4.17; S 3.88; C 3.37; R 3.77; T 3.66; D 4.64; P 3.66; V 3.29
L6: T 2.01; K 2.65; G 3.23; S 2.19; E 2.46; Q 2.54; A 3.32; P 3.62; V 2.04; I 2.12; H 2.55; N 2.91; R 3.29; F 1.91
E22: D 1.72; K 2.71; H 1.88; P 2.82; I 2.9; M 2.94; C 2.79; N 1.68; A 3.4; G 1.55; T 3.65
F4: H 1.98; S 3.4; M 2.31; A 2.45; G 3.73; P 4.09; K 4.05; V 2.87; D 3.72; T 3.51; E 2.94; R 3.06; I 2.53; Y 1.98; N 3.27
A11: M 1.49; G 2.04; Q 1.62; I 4.18; P 3.85; S 2.79; E 3.78; N 2.82; K 2.29; D 3.85; R 3.03; C 3.46; H 3.39; W 2.75
N13: R 1.67; W 2; F 2.82; T 1.8; K 1.95; I 2.98; C 2.69; S 2.33; L 1.98; Y 2.99; G 2.19; H 1.41; V 1.33; E 2.21; P 3.63; Q 1.68
L20: C 2.1; R 2.12; E 2.92; K 2.46; S 3.52; D 4.42; I 2.31; Q 1.61; W 1.38; P 3.58; H 2.69; M 1.35; Y 2.08; A 2.55; N 4.06; G 2.97; T 2.25; V 1.27; F 2.15
I21: T 4.29; C 3.27; G 3.85; Y 2.99; R 2.44; K 3.46; A 3.25; N 3.95; S 4.54; F 2.29; W 3.67; V 2.96; Q 3.72; H 3.17; M 2.61; E 4.62; D 4.39; P 4.14
N16: V 2.61; W 3.51; Y 2.33; R 1.44; L 2.73; K 3.84; Q 2.33; F 1.36; M 1.34; I 2.83; C 1.85; E 2.89; P 2.8
E12: V 3.63; T 1.86; P 2.26; H 2.01; L 2.69; W 3.4; Q 1.87; N 2.6; I 1.74; G 1.98; R 1.33; D 1.8; K 2.05; S 4
E24: H 1.6; D 1.62; A 2.84; I 1.03; F 3.44; G 2.13; C 1.42
A15: Q 1.42; P 2.93; N 2.04; C 2.46; M 1.92; Y 1.84; T 1.32; S 1.46; R 1.38; I 1.87; G 2.67; V 2.83; L 1.52; H 2.1; E 3.11; F 1.45; D 3.49
R19: C 1.83; M 2.86; T 2.61; P 3.57; K 1.52; F 2.86; L 1.55; N 3.03; W 3.89; G 2.92; A 1.84; H 1.97; I 2.57; E 3.33; S 2.55; V 1.27; Q 1.9
C17: Y 2.78; R 3.51; H 3.37; V 2.02; S 2.28; I 2.14; D 3.98; F 2.14; T 1.39; P 4.29; N 4.09; G 2.98; M 2.83; Q 2.79; K 3.5; A 2.16
V23: W 1.63; R 2.21; L 2.34; H 2.73; P 2.98; G 2.04; Q 1.3; M 4.25; T 3.11; D 1.77; K 1.66; N 1.69; E 2.93; S 2.25; C 2.21; I 1.78; Y 3.99; F 2.36; A 2.18
K2: S 1.76; T 1.03; V 1.67
N3: I 3.48; V 3.1; T 2.09; Q 1.81; E 1.61; S 1.78; R 1.76; D 3.28; W 3.6; Y 1.96; M 3.62
L14: S 3.69; H 3.53; V 3.19; I 2.89; D 4.44; Q 3.98; M 2.02; T 3.79; A 3.7; P 3.89; F 3.11; C 3.14; R 3.92; E 4.23; N 2.72; K 3.8; W 2.26; Y 3.37
T9: A 1.37; P 3.3; E 2.9; H 1.96; Q 1.89; N 2.37; G 2.02; W 2.96; I 3.12; Y 2.57; D 2.74; S 1.98; V 2.5; C 2.03; R 1.13; K 1.39
A7: M 1.73; D 2.85; V 1.77; L 1.22; W 2.26; Q 2.58; C 2.56; K 2.98; T 2.2; S 1.78; H 2.16; E 1.68; F 1.88; Y 2.08; P 3.32
F8: S 1.45; V 2.12; H 2.33; G 4.29; N 2.06; P 4.98; W 1.48; C 1.07; Y 1.35; Q 3.61; D 4.41; T 2.6; E 3.82
E18: S 2.65; H 2.64; P 2.6; Y 3.75; L 1.59; C 2.68; Q 1.97; G 1.84; R 1.85; D 2.98; M 2.73; I 4.4; A 2.09; T 2.18; N 2.22; K 2.04; V 1
E5: S 1.39; C 2.87; A 1.62; R 3.01; H 1.96; L 1.72; T 1.94; K 2.24; Q 1.25; D 1.59; N 2.96; G 2.52
